Values quoted from earlier work in patent publication US20060183681A1, “Stabilized compositions containing natriuretic peptides” (Bio-Rad Laboratories, Inc., priority 2005, published 2006).

For B-type natriuretic peptide [BNP], the “half-life (t1/2) in vivo” value is listed as “approximately 23 minutes”.
